Changes are numbered by the printed parent chain. Numbers in names are those of the source.
Columns and labels:
[1] = target: T1, displayed FcCH3A, B135 (D399L/K409W), on yeast cell surface (human, UniProt P0DOX5 227-449 = IgG part); assay: flow cytometry of diploid yeast: MFI of Flag-tagged secreted FcCH3B held on displayed FcCH3A (anti-Flag mouse mAb and PE anti-mouse antibody), normalised to EW-RVT = 100 %
T1 construct: also called B135 CH3A chain (yeast)
T1 Fc: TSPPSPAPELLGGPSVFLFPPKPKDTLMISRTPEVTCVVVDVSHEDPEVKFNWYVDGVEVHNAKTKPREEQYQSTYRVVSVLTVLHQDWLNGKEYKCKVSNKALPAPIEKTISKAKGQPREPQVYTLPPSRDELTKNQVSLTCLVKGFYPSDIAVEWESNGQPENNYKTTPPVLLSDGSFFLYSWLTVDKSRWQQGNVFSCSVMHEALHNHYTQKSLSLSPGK

[2] = target: T2, displayed FcCH3A, A216 (E357G/S364W/K370E), on yeast cell surface (human, UniProt P0DOX5 227-449 = IgG part); assay: as above
T2 construct: also called A216 CH3A chain (yeast)
T2 Fc: T1 Fc with E133G, S140W, K146E, L175D, W185K
Description: (§1) FACS was sequentially performed four times. […] Table 9 below summarizes the mutation pairs introduced into individual clones selected from the respective LibA2 and LibB2 libraries.

[3] = target: T3, displayed FcCH3A, A205 (E357D/S364W/K370E), on yeast cell surface (human, UniProt P0DOX5 227-449 = IgG part); assay: as above
T3 construct: also called A205 CH3A chain (yeast)
T3 Fc: T1 Fc with E133D, S140W, K146E, L175D, W185K
Description: as §1

[4] = target: T4, displayed FcCH3A, B212 (K392I/D399L), on yeast cell surface (human, UniProt P0DOX5 227-449 = IgG part); assay: as above
T4 construct: also called B212 CH3A chain (yeast)
T4 Fc: T1 Fc with K168I, W185K
Description: as §1

[5] = target: T5, B168w/oW-VT (displayed FcCH3A on yeast cell surface); assay: as above
T5 construct: also called B168w/oW-VT CH3A chain (yeast), D399L
T5 Fc: T1 Fc with W185K
Description: as §1

[6] = target: T6, displayed FcCH3A, B215 (K392R/K409R/D399L), on yeast cell surface (human, UniProt P0DOX5 227-449 = IgG part); assay: as above
T6 construct: also called B215 CH3A chain (yeast)
T6 Fc: T1 Fc with K168R, W185R
Description: as §1

[7] = target: T7, displayed FcCH3A, B168 (D399L/K409W), on yeast cell surface (human, UniProt P0DOX5 227-449 = IgG part); assay: as above
T7 construct: also called B168 CH3A chain (yeast)
T7 Fc: T1 Fc

[8] = target: T8, A107w/oW-VT (displayed FcCH3A on yeast cell surface); assay: as above
T8 construct: also called A107w/oW-VT CH3A chain (yeast), K370E
T8 Fc: T1 Fc with K146E, L175D, W185K
Description: as §1

[9] = target: T9, displayed FcCH3A, A210 (E357A/S364Y/K370E), on yeast cell surface (human, UniProt P0DOX5 227-449 = IgG part); assay: as above
T9 construct: also called A210 CH3A chain (yeast)
T9 Fc: T1 Fc with E133A, S140Y, K146E, L175D, W185K
Description: as §1

[10] = target: T10, displayed FcCH3A, A241 (E357N/S364W/K370E), on yeast cell surface (human, UniProt P0DOX5 227-449 = IgG part); assay: as above
T10 construct: also called A241 CH3A chain (yeast)
T10 Fc: T1 Fc with E133N, S140W, K146E, L175D, W185K
Description: as §1

[11] = target: T11, displayed FcCH3A, B235 (K392C/D399L), on yeast cell surface (human, UniProt P0DOX5 227-449 = IgG part, chain 1 pos 168 (K392C): said to form an inter-chain disulfide with D399C of the CH3B partner); assay: as above
T11 construct: also called B235 CH3A chain (yeast)
T11 Fc: T1 Fc with K168C, W185K
Description: as §1

[12] = target: T12, displayed FcCH3A, KiH (Genentech) (T366S/L368A/Y407V), on yeast cell surface (human, UniProt P0DOX5 227-449 = IgG part); assay: flow cytometry histogram (PE, FL2-H) of diploid yeast: Flag-tagged secreted FcCH3B held on displayed FcCH3A, anti-Flag mouse mAb and PE anti-mouse antibody
T12 construct: also called KiH CH3A chain (yeast)
T12 Fc: T1 Fc with T142S, L144A, L175D, Y183V, W185K
Description: Specifically, the diploid in which the expression of the heterodimeric heavy chain constant region was induced was reacted with an antibody recognizing flag-tag included in the secreted FcCH3B (anti-Flag mouse mAb, F3165) (Sigma-Aldrich) and an antibody conjugated with PE (phycoerythrin conjugated anti-mouse mAb, sc-3738) (Santa Cruz biotechnology), and a signal of PE was analyzed by flow cytometry.

B1: secreted FcCH3B, B135 (K392S/K409L/D399V/F405T), from yeast (other)
chain: T1 Fc with K168S, L175V, F181T, W185L
notes: also called B135 CH3B chain (yeast); not shown: flag-tag
[1]
  binding result: binds

B2: secreted FcCH3B, A216 (E357N), from yeast (other)
chain: T1 Fc with E133N, L175D, W185K
notes: also called A216 CH3B chain (yeast); not shown: flag-tag
[2]
  binding result: binds

B3: secreted FcCH3B, A205 (E357N/K370R), from yeast (other)
chain: T1 Fc with E133N, K146R, L175D, W185K
notes: also called A205 CH3B chain (yeast); not shown: flag-tag
[3]
  binding result: binds

B4: secreted FcCH3B, B212 (D399G/K392G/K409M), from yeast (other)
chain: T1 Fc with K168G, L175G, W185M
notes: also called B212 CH3B chain (yeast); not shown: flag-tag
[4]
  binding result: binds

B5: B168w/oW-VT (secreted FcCH3B from yeast) (other)
secreted Fc chain (hinge-CH2-CH3B): T1 Fc with K168G, L175D, W185M
notes: also called B168w/oW-VT CH3B chain (yeast), K392G/K409M
[5]
  binding result: binds

B6: secreted FcCH3B, B215 (D399W/K392G/K409M), from yeast (other)
chain: T1 Fc with K168G, L175W, W185M
notes: also called B215 CH3B chain (yeast); not shown: flag-tag
[6]
  binding result: binds

B7: secreted FcCH3B, B168 (K392G/K409M/D399V/F405T), from yeast (other)
chain: T1 Fc with K168G, L175V, F181T, W185M
notes: also called B168 CH3B chain (yeast); not shown: flag-tag
[7]
  binding result: binds

B8: A107w/oW-VT (secreted FcCH3B from yeast) (other)
secreted Fc chain (hinge-CH2-CH3B): T1 Fc with E133N, L175D, W185K
notes: also called A107w/oW-VT CH3B chain (yeast), E357N
[8]
  binding result: binds

B9: secreted FcCH3B, A210 (E357N/K370H), from yeast (other)
chain: T1 Fc with E133N, K146H, L175D, W185K
notes: also called A210 CH3B chain (yeast); not shown: flag-tag
[9]
  binding result: binds

B10: secreted FcCH3B, A241 (E357N), from yeast (other)
chain: T1 Fc with E133N, L175D, W185K
notes: also called A241 CH3B chain (yeast); not shown: flag-tag
[10]
  binding result: binds

B11: secreted FcCH3B, B235 (D399C/K392G/K409M), from yeast (other)
chain: T1 Fc with K168G, L175C, W185M
notes: also called B235 CH3B chain (yeast); not shown: flag-tag
[11]
  binding result: binds

B12: secreted FcCH3B, KiH (Genentech) (T366W), from yeast (other)
chain: T1 Fc with T142W, L175D, W185K
notes: also called KiH CH3B chain (yeast); not shown: flag-tag
[12]
  binding result: binds

— US20180346600A1 (AJOU UNIVERSITY INDUSTRY ACADEMIC COOPERATION FOUNDATION, published 2018)
